Values of other authors as cited in publication PMC3121883.
Read-outs that look alike come from different tables or passages of the source.

Assays:
[1] = biological target: Connexin43 C-terminal peptide (UniProt P17302); assay: fluorescence
[2] = biological target: Connexin43 C-terminal peptide (UniProt P17302); assay: fluorescence; remark: listed apart in the source

UniProt P17302, sequence (P17302 whole entry, looked up, tested part not stated): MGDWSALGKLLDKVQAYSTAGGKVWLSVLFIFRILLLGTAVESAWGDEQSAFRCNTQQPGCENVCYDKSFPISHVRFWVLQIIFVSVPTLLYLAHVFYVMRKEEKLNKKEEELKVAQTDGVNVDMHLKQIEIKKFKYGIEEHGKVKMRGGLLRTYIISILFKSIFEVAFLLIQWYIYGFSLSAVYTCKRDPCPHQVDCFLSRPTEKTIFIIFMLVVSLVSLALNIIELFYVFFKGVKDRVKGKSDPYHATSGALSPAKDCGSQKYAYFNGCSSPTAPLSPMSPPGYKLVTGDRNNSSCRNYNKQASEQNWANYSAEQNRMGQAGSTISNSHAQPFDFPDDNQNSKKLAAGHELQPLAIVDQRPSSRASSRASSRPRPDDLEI

- Kd [1]: > 100 µM
- Kd [2]: 7.2 µM
Substance: ZO-1 PDZ2 (from UniProt Q07157)
